# Assay results taken from PMC9482650, “Quantitative fragmentomics allow affinity mapping of interactomes” (Nature Communications, 2022).
# Changes are numbered by the printed parent chain.
# T1: DLG3_3, Q92796
# T1 sequence (Q92796 374-475, limits assumed, looked up): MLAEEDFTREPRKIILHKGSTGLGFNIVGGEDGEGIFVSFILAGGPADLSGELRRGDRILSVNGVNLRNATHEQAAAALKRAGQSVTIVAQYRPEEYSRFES
# T2: DFNB31_1, Q9P202
# T2 sequence (Q9P202 135-233, limits assumed, looked up): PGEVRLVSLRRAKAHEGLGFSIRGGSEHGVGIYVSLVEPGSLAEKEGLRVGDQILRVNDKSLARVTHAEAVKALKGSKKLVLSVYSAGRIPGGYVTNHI
# T3: ARHGEF11, O15085
# T3 sequence (O15085 42-136, limits assumed, looked up): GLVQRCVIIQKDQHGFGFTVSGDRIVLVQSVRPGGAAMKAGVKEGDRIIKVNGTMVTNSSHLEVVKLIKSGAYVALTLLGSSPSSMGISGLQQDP
# T4: SNTA1, Q13424
# T4 sequence (Q13424 82-180, limits assumed, looked up): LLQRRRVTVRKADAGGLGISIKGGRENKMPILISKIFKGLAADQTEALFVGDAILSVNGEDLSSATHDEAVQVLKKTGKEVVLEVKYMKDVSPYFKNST
# T5: DFNB31_3, Q9P202
# T5 sequence (Q9P202 811-907, limits assumed, looked up): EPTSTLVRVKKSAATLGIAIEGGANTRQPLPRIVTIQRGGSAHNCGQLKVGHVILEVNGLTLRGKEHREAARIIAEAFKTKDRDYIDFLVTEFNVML
# T6: GRIP1_4, Q9Y3R0
# T6 sequence (Q9Y3R0 467-571, limits assumed, looked up): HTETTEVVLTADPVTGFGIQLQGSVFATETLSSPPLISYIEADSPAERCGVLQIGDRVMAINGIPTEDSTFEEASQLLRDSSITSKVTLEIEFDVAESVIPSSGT
# T7: SIPA1L2, Q9P2F8
# T7 sequence (Q9P2F8 945-1036, limits assumed, looked up): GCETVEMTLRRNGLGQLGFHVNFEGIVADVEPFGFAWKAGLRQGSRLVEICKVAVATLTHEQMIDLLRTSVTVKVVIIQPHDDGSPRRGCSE
# T8: GRIP1_3, Q9Y3R0
# T8 sequence (Q9Y3R0 247-346, limits assumed, looked up): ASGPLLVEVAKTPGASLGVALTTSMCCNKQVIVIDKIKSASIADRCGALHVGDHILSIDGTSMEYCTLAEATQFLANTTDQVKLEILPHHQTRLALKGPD
# T9: HTRA3, P83110
# T9 sequence (P83110 354-453, limits assumed, looked up): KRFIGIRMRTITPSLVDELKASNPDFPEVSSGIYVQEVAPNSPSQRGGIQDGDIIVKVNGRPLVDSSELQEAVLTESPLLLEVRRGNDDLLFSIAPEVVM
# T10: MPP7, Q5T2T1
# T10 sequence (Q5T2T1 134-230, limits assumed, looked up): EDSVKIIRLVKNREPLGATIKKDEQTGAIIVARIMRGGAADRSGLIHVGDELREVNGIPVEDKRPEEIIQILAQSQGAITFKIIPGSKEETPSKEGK
# T11: PDZRN3_1, Q9UPQ7
# T11 sequence (Q9UPQ7 244-349, limits assumed, looked up): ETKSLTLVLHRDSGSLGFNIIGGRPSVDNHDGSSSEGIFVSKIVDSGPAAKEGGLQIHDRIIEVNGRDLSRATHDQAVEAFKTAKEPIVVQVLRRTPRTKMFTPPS
# T12: LIN7C, Q9NUP9
# T12 sequence (Q9NUP9 88-185, limits assumed, looked up): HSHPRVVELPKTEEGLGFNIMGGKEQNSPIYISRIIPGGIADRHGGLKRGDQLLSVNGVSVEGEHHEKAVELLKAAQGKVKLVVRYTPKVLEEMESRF
# T13: LIN7B, Q9HAP6
# T13 sequence (Q9HAP6 88-185, limits assumed, looked up): T12 sequence (Q9NUP9 88-185, limits assumed, looked up) with S2A, E13D, I35V, I40V, H65Q, K79S, K89R, S96A
# B1: HDAC7, Q8WUI4 (peptide)
# chain: LVEEEEPMNL
# B2: SLC2A3, P11169 (peptide)
# chain: EPAKETTTNV
# B3: CACNA1D, Q01668 (peptide)
# chain: ADEMICITTL
# B4: NEB, P20929 (peptide)
# chain: MLPANYVEAI
# B5: LRRC4, Q9HBW1 (peptide)
# chain: TKDKVQETQI
# B6: SLCO2B1, O94956 (peptide)
# chain: PGKKPEDSRV
# Target: GOPC, Q9HD26
# Assay: holdup assay
# Design: key: below the threshold = too weak to quantify, mostly under pKd 3.1 to 4
# Settings: plain residues with an end cap or a label only (N-terminal biotin on a linker: ado-ado)
row,pKd,Binder
1,below the threshold,B1
2,3.73,B2
3,4.88,B3
4,below the threshold,B4
5,4.47,B5
6,below the threshold,B6

# Target: T1, DLG3_3, Q92796
# Assay: holdup assay
# Design: key: below the threshold = too weak to quantify, mostly under pKd 3.1 to 4
# Settings: plain residues with an end cap or a label only (N-terminal biotin on a linker: ado-ado)
row,pKd,Binder
1,below the threshold,B1
2,below the threshold,B2
3,below the threshold,B3
4,below the threshold,B4
5,3.98,B5
6,below the threshold,B6

# Target: GRID2IP_1, A4D2P6
# Sequence (A4D2P6 1-87): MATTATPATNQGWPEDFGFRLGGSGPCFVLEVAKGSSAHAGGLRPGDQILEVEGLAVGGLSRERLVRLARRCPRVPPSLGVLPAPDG
# Assay: holdup assay
# Design: key: below the threshold = too weak to quantify, mostly under pKd 3.1 to 4
# Settings: plain residues with an end cap or a label only (N-terminal biotin on a linker: ado-ado)
row,pKd,Binder
1,below the threshold,B1
2,below the threshold,B2
3,below the threshold,B3
4,below the threshold,B4
5,below the threshold,B5
6,below the threshold,B6

# Target: T2, DFNB31_1, Q9P202
# Assay: holdup assay
# Design: key: below the threshold = too weak to quantify, mostly under pKd 3.1 to 4
# Settings: plain residues with an end cap or a label only (N-terminal biotin on a linker: ado-ado)
row,pKd,Binder
1,below the threshold,B1
2,3.61,B2
3,3.63,B3
4,below the threshold,B4
5,5.43,B5
6,3.67,B6

# Target: T3, ARHGEF11, O15085
# Assay: holdup assay
# Design: key: below the threshold = too weak to quantify, mostly under pKd 3.1 to 4
# Settings: plain residues with an end cap or a label only (N-terminal biotin on a linker: ado-ado)
row,pKd,Binder
1,below the threshold,B1
2,4,B2
3,5.77,B3
4,below the threshold,B4
5,3.73,B5
6,3.48,B6

# Target: T4, SNTA1, Q13424
# Assay: holdup assay
# Design: key: below the threshold = too weak to quantify, mostly under pKd 3.1 to 4
# Settings: plain residues with an end cap or a label only (N-terminal biotin on a linker: ado-ado)
row,pKd,Binder
1,below the threshold,B1
2,4.09,B2
3,4.42,B3
4,below the threshold,B4
5,4.88,B5
6,3.97,B6

# Target: GORASP2, Q9H8Y8
# Assay: holdup assay
# Design: key: below the threshold = too weak to quantify, mostly under pKd 3.1 to 4
# Settings: plain residues with an end cap or a label only (N-terminal biotin on a linker: ado-ado)
row,pKd,Binder
1,below the threshold,B1
2,3.49,B2
3,4.05,B3
4,4.31,B4
5,3.57,B5
6,below the threshold,B6

# Target: T5, DFNB31_3, Q9P202
# Assay: holdup assay
# Design: key: below the threshold = too weak to quantify, mostly under pKd 3.1 to 4
# Settings: plain residues with an end cap or a label only (N-terminal biotin on a linker: ado-ado)
row,pKd,Binder
1,3.94,B1
2,4.05,B2
3,4.89,B3
4,below the threshold,B4
5,4.11,B5
6,below the threshold,B6

# Target: GIPC2, Q8TF65
# Sequence (Q8TF65 112-203): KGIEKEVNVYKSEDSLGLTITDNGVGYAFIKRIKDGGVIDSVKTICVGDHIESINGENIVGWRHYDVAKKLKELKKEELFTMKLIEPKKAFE
# Assay: holdup assay
# Design: key: below the threshold = too weak to quantify, mostly under pKd 3.1 to 4
# Settings: plain residues with an end cap or a label only (N-terminal biotin on a linker: ado-ado)
row,pKd,Binder
1,below the threshold,B1
2,below the threshold,B2
3,below the threshold,B3
4,below the threshold,B4
5,3.68,B5
6,below the threshold,B6

# Target: GORASP1, Q9BQQ3
# Sequence (Q9BQQ3 1-208): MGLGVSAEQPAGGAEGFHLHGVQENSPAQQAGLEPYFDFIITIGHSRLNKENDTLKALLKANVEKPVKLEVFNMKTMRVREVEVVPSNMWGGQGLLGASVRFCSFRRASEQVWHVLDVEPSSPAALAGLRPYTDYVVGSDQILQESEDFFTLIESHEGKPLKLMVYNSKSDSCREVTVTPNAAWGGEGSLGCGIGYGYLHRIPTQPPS
# Assay: holdup assay
# Design: key: below the threshold = too weak to quantify, mostly under pKd 3.1 to 4
# Settings: plain residues with an end cap or a label only (N-terminal biotin on a linker: ado-ado)
row,pKd,Binder
1,below the threshold,B1
2,below the threshold,B2
3,4,B3
4,3.7,B4
5,below the threshold,B5
6,below the threshold,B6

# Target: Inadl_2, Q8NI35
# Sequence (Q8NI35 238-335): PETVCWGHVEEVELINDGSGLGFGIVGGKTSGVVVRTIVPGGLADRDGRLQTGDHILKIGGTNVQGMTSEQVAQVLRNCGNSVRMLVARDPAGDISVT
# Assay: holdup assay
# Design: key: below the threshold = too weak to quantify, mostly under pKd 3.1 to 4
# Settings: plain residues with an end cap or a label only (N-terminal biotin on a linker: ado-ado)
row,pKd,Binder
1,below the threshold,B1
2,below the threshold,B2
3,below the threshold,B3
4,below the threshold,B4
5,below the threshold,B5
6,below the threshold,B6

# Target: DLG4_2, P78352
# Sequence (P78352 155-259): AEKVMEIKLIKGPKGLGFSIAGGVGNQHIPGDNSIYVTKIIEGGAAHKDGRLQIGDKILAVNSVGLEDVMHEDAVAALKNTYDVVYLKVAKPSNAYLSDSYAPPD
# Assay: holdup assay
# Design: key: below the threshold = too weak to quantify, mostly under pKd 3.1 to 4
# Settings: plain residues with an end cap or a label only (N-terminal biotin on a linker: ado-ado)
row,pKd,Binder
1,below the threshold,B1
2,4.21,B2
3,4.02,B3
4,below the threshold,B4
5,4.76,B5
6,3.91,B6

# Target: T6, GRIP1_4, Q9Y3R0
# Assay: holdup assay
# Design: key: below the threshold = too weak to quantify, mostly under pKd 3.1 to 4
# Settings: plain residues with an end cap or a label only (N-terminal biotin on a linker: ado-ado)
row,pKd,Binder
1,below the threshold,B1
2,below the threshold,B2
3,below the threshold,B3
4,below the threshold,B4
5,below the threshold,B5
6,below the threshold,B6

# Target: NHERF4_2, Q86UT5
# Sequence (Q86UT5 220-308): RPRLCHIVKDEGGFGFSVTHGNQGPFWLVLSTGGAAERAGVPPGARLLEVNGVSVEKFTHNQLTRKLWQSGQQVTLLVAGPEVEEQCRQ
# Assay: holdup assay
# Design: key: below the threshold = too weak to quantify, mostly under pKd 3.1 to 4
# Settings: plain residues with an end cap or a label only (N-terminal biotin on a linker: ado-ado)
row,pKd,Binder
1,below the threshold,B1
2,3.56,B2
3,below the threshold,B3
4,below the threshold,B4
5,below the threshold,B5
6,below the threshold,B6

# Target: T7, SIPA1L2, Q9P2F8
# Assay: holdup assay
# Design: key: below the threshold = too weak to quantify, mostly under pKd 3.1 to 4
# Settings: plain residues with an end cap or a label only (N-terminal biotin on a linker: ado-ado)
row,pKd,Binder
1,below the threshold,B1
2,below the threshold,B2
3,below the threshold,B3
4,below the threshold,B4
5,below the threshold,B5
6,below the threshold,B6

# Target: T8, GRIP1_3, Q9Y3R0
# Assay: holdup assay
# Design: key: below the threshold = too weak to quantify, mostly under pKd 3.1 to 4
# Settings: plain residues with an end cap or a label only (N-terminal biotin on a linker: ado-ado)
row,pKd,Binder
1,below the threshold,B1
2,below the threshold,B2
3,below the threshold,B3
4,below the threshold,B4
5,below the threshold,B5
6,below the threshold,B6

# Target: T9, HTRA3, P83110
# Assay: holdup assay
# Design: key: below the threshold = too weak to quantify, mostly under pKd 3.1 to 4
# Settings: plain residues with an end cap or a label only (N-terminal biotin on a linker: ado-ado)
row,pKd,Binder
1,below the threshold,B1
2,below the threshold,B2
3,below the threshold,B3
4,below the threshold,B4
5,below the threshold,B5
6,below the threshold,B6

# Target: T10, MPP7, Q5T2T1
# Assay: holdup assay
# Design: key: below the threshold = too weak to quantify, mostly under pKd 3.1 to 4
# Settings: plain residues with an end cap or a label only (N-terminal biotin on a linker: ado-ado)
row,pKd,Binder
1,below the threshold,B1
2,below the threshold,B2
3,below the threshold,B3
4,below the threshold,B4
5,below the threshold,B5
6,below the threshold,B6

# Target: CASK, O14936
# Sequence (O14936 487-570): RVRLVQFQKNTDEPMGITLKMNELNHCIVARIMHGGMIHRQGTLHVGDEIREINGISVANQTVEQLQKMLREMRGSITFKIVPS
# Assay: holdup assay
# Design: key: below the threshold = too weak to quantify, mostly under pKd 3.1 to 4
# Settings: plain residues with an end cap or a label only (N-terminal biotin on a linker: ado-ado)
row,pKd,Binder
1,below the threshold,B1
2,below the threshold,B2
3,below the threshold,B3
4,below the threshold,B4
5,below the threshold,B5
6,below the threshold,B6

# Target: T11, PDZRN3_1, Q9UPQ7
# Assay: holdup assay
# Design: key: below the threshold = too weak to quantify, mostly under pKd 3.1 to 4
# Settings: plain residues with an end cap or a label only (N-terminal biotin on a linker: ado-ado)
row,pKd,Binder
1,below the threshold,B1
2,below the threshold,B2
3,below the threshold,B3
4,below the threshold,B4
5,4.4,B5
6,below the threshold,B6

# Target: T12, LIN7C, Q9NUP9
# Assay: holdup assay
# Design: key: below the threshold = too weak to quantify, mostly under pKd 3.1 to 4
# Settings: plain residues with an end cap or a label only (N-terminal biotin on a linker: ado-ado)
row,pKd,Binder
1,4.12,B1
2,4.05,B2
3,below the threshold,B3
4,below the threshold,B4
5,3.98,B5
6,below the threshold,B6

# Target: GRIP2_5, Q9C0E4
# Sequence (Q9C0E4 544-642): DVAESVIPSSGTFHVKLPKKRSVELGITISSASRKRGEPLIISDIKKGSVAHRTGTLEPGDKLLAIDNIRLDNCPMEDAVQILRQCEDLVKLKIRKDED
# Assay: holdup assay
# Design: key: below the threshold = too weak to quantify, mostly under pKd 3.1 to 4
# Settings: plain residues with an end cap or a label only (N-terminal biotin on a linker: ado-ado)
row,pKd,Binder
1,below the threshold,B1
2,below the threshold,B2
3,below the threshold,B3
4,below the threshold,B4
5,below the threshold,B5
6,3.5,B6

# Target: T13, LIN7B, Q9HAP6
# Assay: holdup assay
# Design: key: below the threshold = too weak to quantify, mostly under pKd 3.1 to 4
# Settings: plain residues with an end cap or a label only (N-terminal biotin on a linker: ado-ado)
row,pKd,Binder
1,below the threshold,B1
2,below the threshold,B2
3,3.95,B3
4,3.69,B4
5,3.74,B5
6,below the threshold,B6

# Target: MAGI2_4, Q86UL8
# Sequence (Q86UL8 772-865): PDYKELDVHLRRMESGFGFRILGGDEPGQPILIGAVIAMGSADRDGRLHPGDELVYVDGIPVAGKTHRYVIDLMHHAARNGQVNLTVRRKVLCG
# Assay: holdup assay
# Design: key: below the threshold = too weak to quantify, mostly under pKd 3.1 to 4
# Settings: plain residues with an end cap or a label only (N-terminal biotin on a linker: ado-ado)
row,pKd,Binder
1,below the threshold,B1
2,3.57,B2
3,below the threshold,B3
4,below the threshold,B4
5,3.72,B5
6,below the threshold,B6

# Target: FRMPD4, Q14CM0
# Sequence (Q14CM0 67-160): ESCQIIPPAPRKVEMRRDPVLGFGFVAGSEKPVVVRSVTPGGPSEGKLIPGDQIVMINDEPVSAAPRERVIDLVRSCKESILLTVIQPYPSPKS
# Assay: holdup assay
# Design: key: below the threshold = too weak to quantify, mostly under pKd 3.1 to 4
# Settings: plain residues with an end cap or a label only (N-terminal biotin on a linker: ado-ado)
row,pKd,Binder
1,3.86,B1
2,3.52,B2
3,3.97,B3
4,below the threshold,B4
5,3.57,B5
6,below the threshold,B6
